Measurements from the RNAGym collection of RNA variant scans (doi:10.1093/molbev/msab373).

B1: Azoarcus group I ribozyme (parent)
chain: GUGCCUUGCGCCGGGAAACCACGCAAGGGAUGGUGUCAAAUUCGGCGAAACCUAAGCGCCCGCCCGGGCGUAUGGCAACGCCGAGCCAAGCUUCGGCGCCUGCGCCGAUGAAGGUGUAGAGACUAGACGGCACCCACCUAAGGCAAACGCUAUGGUGAAGGCAUAGUCCAGGGAGUGGCGAAAGUCACACAAACCGG

Variants of: B1
Test: reverse-splicing fitness (ratio to wild type); higher = more active; in vitro selection; Mg2+ level not given
Summary of the method: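 An in vitro group I ribozyme library with randomized positions was T7-transcribed and gel-purified. In triplicate, 10 pmol RNA in EPPS pH 7.5 was reacted with 50 pmoles of a 30-nt RNA substrate for 1 h at 37 °C across several added MgCl2 levels (1–48 mM), then stopped with EDTA. Products were reverse transcribed from a substrate-complementary primer, PCR-amplified and sequenced (HiSeq 4000). Fitness is a variant's read proportion after selection over that before, normalised to wild type.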

Variant	reverse-splicing fitness
A111G A120U A145C C150A	0.0434
A111G A120U A145C C150U	0.264
A111G A120U A145C C150G	0.116
A111G A120U A145G C150G C169G	0.0123
A111G A120U A145G C150G C169U	0.0149
A111G A120U A145G C150G C169A	0.00794
A111G A120G A145G C150U C169U U176C	0.0831
A111G A120G A145G C150U C169U U176G	0.00628
A111G A120G A145G C150U C169U U176A	0.0625
A111G A120G A145G C150A C169G U176A	0.0262
A111G A120G A145G C150A C169G U176G	0.00578
A111G A120G A145G C150A C169G U176C	0.0371
A111G A120G A145C C150U C169G	0.088
A111G A120G A145C C150U C169U	0.0714
A111G A120G A145U C150U C169A U176G	0.00532
A111G A120G A145U C150U C169A U176C	0.0426
A111G A120G A145U C150U C169A U176A	0.0314
A111G A120G A145G C169U U176A	0.0849
A111G A120G A145G C169U U176C	0.0954
A111G A120G A145G C169U U176G	0.00896
A111G A120G A145U C150U C169U	0.157
A111G A120G A145U C150U C169G	0.206
A111G A120G A145U C150U C169A	0.114
A111G A120U A145G C150A C169G U176G	0.00256

Variant	reverse-splicing fitness
A111G A120U A145G C150A C169G U176A	0.0104
A111G A120U A145G C150A C169G U176C	0.00584
A111G A120U	0.785
A111G A120G A145U C150U C169G U176G	0.00556
A111G A120G A145U C150U C169G U176A	0.0574
A111G A120G A145U C150U C169G U176C	0.0783
A111G A120G A145U C169U U176A	0.0839
A111G A120G A145U C169U U176C	0.093
A111G A120G A145U C169U U176G	0.0103
A111G A120U A145C C150G C169A	0.00293
A111G A120U A145C C150G C169U	0.014
A111G A120U A145C C150G C169G	0.0104
A111G A120G A145G U176C	0.12
A111G A120G A145G U176A	0.0808
A111G A120G A145G U176G	0.00937
A111G A120U A145G C150A C169U U176G	0.00242
A111G A120U A145G C150A C169U U176A	0.00579
A111G A120U A145G C150A C169U U176C	0.00673
A111G A120G A145U U176A	0.0829
A111G A120G A145U U176G	0.00952
A111G A120G A145U U176C	0.116
A111G A120G A145G C150G U176G	0.00619
A111G A120G A145G C150G U176C	0.0227
A111G A120G A145G C150G U176A	0.0132

Variant	reverse-splicing fitness
A111G A120G A145G C169G	0.329
A111G A120G A145G C169U	0.252
A111G A120G A145G C169A	0.188
A111G A120U A145C C150A U176C	0.00924
A111G A120U A145C C150A U176A	0.0179
A111G A120U A145C C150A U176G	0.00839
A111G A120G C150U U176G	0.00879
A111G A120G C150U U176C	0.0801
A111G A120G C150U U176A	0.0505
A111G A120U A145G C150U	0.611
A111G A120U A145G C150G	0.0771
A111G A120U A145G C150A	0.148
A111G A120G C150G C169A	0.0164
A111G A120G C150G C169G	0.0259
A111G A120G C150G C169U	0.0264
A111G A120U A145G C150U C169U	0.111
A111G A120U A145G C150U C169G	0.0623
A111G A120U A145G C150U C169A	0.00841
A111G A120G A145U C150A C169A U176C	0.015
A111G A120G A145U C150A C169A U176G	0.00504
A111G A120G A145U C150A C169A U176A	0.0157
A111G A120G A145U C150G C169G U176G	0.00457
A111G A120G A145U C150G C169G U176C	0.00471
A111G A120G A145U C150G C169G U176A	0.00768

Variant	reverse-splicing fitness
A111G A120G A145G C150G C169U U176C	0.0152
A111G A120G A145G C150G C169U U176A	0.012
A111G A120G A145G C150G C169U U176G	0.00654
A111G A120U A145C C150U C169G	0.0196
A111G A120U A145C C150U C169U	0.0277
A111G A120U A145C C150U C169A	0.0024
A111G A120U A145C C150U U176G	0.0448
A111G A120U A145C C150U U176A	0.0932
A111G A120U A145C C150U U176C	0.055
A111G A120U A145G C150A C169A	0.00596
A111G A120U A145G C150A C169G	0.0141
A111G A120U A145G C150A C169U	0.0188
A111G A120G A145G C150U C169G U176C	0.078
A111G A120G A145G C150U C169G U176A	0.0549
A111G A120G A145G C150U C169G U176G	0.00563
A111G A120G A145G C150G C169G U176A	0.00945
A111G A120G A145G C150G C169G U176C	0.0117
A111G A120G A145G C150G C169G U176G	0.0054
A111G A120G C150A C169G U176A	0.0259
A111G A120G C150A C169G U176C	0.0343
A111G A120G C150A C169G U176G	0.00566
A111G A120G A145U C150G C169U U176C	0.0171
A111G A120G A145U C150G C169U U176A	0.0148
A111G A120G A145U C150G C169U U176G	0.00442

Variant	reverse-splicing fitness
A111G A120G A145U	0.274
A111G A120G A145G	0.285
A111G A120G A145G C150U U176A	0.0693
A111G A120G A145G C150U U176C	0.0905
A111G A120G A145G C150U U176G	0.00986
A111G A120G A145C U176C	0.104
A111G A120G A145C U176G	0.00892
A111G A120G A145C U176A	0.0723
A111G A120G A145G C150U C169A	0.131
A111G A120G A145G C150U C169U	0.2
A111G A120G A145G C150U C169G	0.255
A111G A120G C150U C169A	0.0914
A111G A120G C150U C169U	0.142
A111G A120G C150U C169G	0.177
A111G A120G A145G C150A C169U U176C	0.0305
A111G A120G A145G C150A C169U U176A	0.0309
A111G A120G A145G C150A C169U U176G	0.00605
A111G A120U A145C C150G C169G U176G	0.00213
A111G A120U A145C C150G C169G U176C	0.0019
A111G A120U A145C C150G C169G U176A	0.00296
A111G A120G C150A U176A	0.0188
A111G A120G C150A U176G	0.00663
A111G A120G C150A U176C	0.0301
A111G A120G C150A C169A U176G	0.00486

Variant	reverse-splicing fitness
A111G A120G C150A C169A U176A	0.0205
A111G A120G C150A C169A U176C	0.0244
A111G A120G C150G U176A	0.011
A111G A120G C150G U176G	0.00356
A111G A120G C150G U176C	0.0173
A111G A120U A145G C150A U176A	0.0506
A111G A120U A145G C150A U176G	0.0119
A111G A120U A145G C150A U176C	0.0581
A111G A120U A145G C150G C169A U176G	0.00395
A111G A120U A145G C150G C169A U176A	0.00856
A111G A120U A145G C150G C169A U176C	0.00599
A111G A120G C150U C169U U176C	0.0607
A111G A120G C150U C169U U176A	0.0545
A111G A120G C150U C169U U176G	0.00845
A111G A120G C169U U176C	0.0969
A111G A120G C169U U176G	0.011
A111G A120G C169U U176A	0.0845
A111G A120G A145C C169U U176C	0.0829
A111G A120G A145C C169U U176G	0.00876
A111G A120G A145C C169U U176A	0.0733
A111G A120U A145C C150G C169U U176C	0.0023
A111G A120U A145C C150G C169U U176G	0.00225
A111G A120U A145C C150G C169U U176A	0.00272
A111G A120U A145C C150U C169G U176A	0.00436

Variant	reverse-splicing fitness
A111G A120U A145C C150U C169G U176C	0.0028
A111G A120U A145C C150U C169G U176G	0.00177
A111G A120G A145U C150G C169U	0.0301
A111G A120G A145U C150G C169G	0.0297
A111G A120G A145U C150G C169A	0.0193
A111G A120G C169A	0.165
A111G A120G C169G	0.321
A111G A120G C169U	0.236
A111G A120G A145U C150G	0.0319
A111G A120G A145U C150A	0.0301
A111G A120G A145U C150U	0.19
A111G A120G A145C C150U C169A U176G	0.00411
A111G A120G A145C C150U C169A U176A	0.0171
A111G A120G A145C C150U C169A U176C	0.0168
A111G A120U A145C C150A C169G U176G	0.00195
A111G A120U A145C C150A C169G U176A	0.00272
A111G A120U A145C C150A C169G U176C	0.00181
A111G A120G C150U C169A U176A	0.0291
A111G A120G C150U C169A U176G	0.00588
A111G A120G C150U C169A U176C	0.0419
A111G A120U A145G C150G U176C	0.0188
A111G A120U A145G C150G U176G	0.00403
A111G A120U A145G C150G U176A	0.00779
